Substrate: Nc1ncnc2c1ncn2[C@@H]1O[C@H](COP(=O)(O)OP(=O)(O)OP(=O)(O)OP(=O)(O)OC[C@H]2O[C@@H](n3cnc4c(N)ncnc43)[C@H](O)[C@@H]2O)[C@@H](O)[C@H]1O
Assay: fluorescent ADP assay, Lineweaver-Burk
Format: biochemical, Streptococcus pyogenes
Details: Mg2+-dependent, heading states optimal conditions (optimum pH 7.0, 45 °C), 0.1 mg/mL enzyme
Description: fluorescent ADP assay, Lineweaver-Burk on Sp-yqeK

B1: Sp-yqeK (Streptococcus pyogenes) (protein)
chain: MTYEDYLPYSRTELLAKIAEQMSPKRFKHVLGVEKAALSLAECYGCNPDKAGLAALLHDYAKECPDQVFLDLIDKYQLSPELAKWNNNVWHGMVGIYKIQEDLGLKDKDILRAIEIHTVGAAEMTLLDKVLYVADYIEEGRIFPLVDDARKIAKLDLNQAVAYETVNTVAYLASKAQPIFPQTLDTYNAFCSYLKEY
notes: pET28b (Nde I/Xho I), E. coli BL21(DE3), Ni-NTA purified; about 23 kDa; dimer in the asymmetric unit
For B1, the Km was 216.4 ± 21.65 µM.

Source: paper PMC11857287
